Changes are numbered by the printed parent chain.
B1: antibody 48 (antibody, V domains shown)
VH: QVQLQQSGTELVRPGTSVKVSCKASGYAFTNYLIEWVKQRPGQGLEWIGVINPGSGFTKYNEKFKGKATLTADKSSSTVYMHLSSLTSEDSAVYFCARGLYRAMDYWGQGTSVTVSS
VL: DIQMTQSPASQSASLGESVTITCLASQTIATWLAWYQQKPGKSPQLLIYGATTLADGVPSRFSGGGSGTKFSFKISSLQAEDFVSYYCQQLYSTPYTFGGGTKLEIK
notes: mouse IgG, kappa light chain; also called clone #48; purified antibody 48
B2: antibody 50 (antibody, V domains shown)
VH: B1 VH with T9A, T16A, T30S, V79A, H82Q
VL: B1 VL with A30G, G50A, T52A, T53S, S85N, L91I
notes: mouse IgG, kappa light chain; also called clone #50; purified antibody 50

Biological target: T1, hiR2-FL-F523W-T7 (human, UniProt Q6PJF5 1-856)
T1 sequence: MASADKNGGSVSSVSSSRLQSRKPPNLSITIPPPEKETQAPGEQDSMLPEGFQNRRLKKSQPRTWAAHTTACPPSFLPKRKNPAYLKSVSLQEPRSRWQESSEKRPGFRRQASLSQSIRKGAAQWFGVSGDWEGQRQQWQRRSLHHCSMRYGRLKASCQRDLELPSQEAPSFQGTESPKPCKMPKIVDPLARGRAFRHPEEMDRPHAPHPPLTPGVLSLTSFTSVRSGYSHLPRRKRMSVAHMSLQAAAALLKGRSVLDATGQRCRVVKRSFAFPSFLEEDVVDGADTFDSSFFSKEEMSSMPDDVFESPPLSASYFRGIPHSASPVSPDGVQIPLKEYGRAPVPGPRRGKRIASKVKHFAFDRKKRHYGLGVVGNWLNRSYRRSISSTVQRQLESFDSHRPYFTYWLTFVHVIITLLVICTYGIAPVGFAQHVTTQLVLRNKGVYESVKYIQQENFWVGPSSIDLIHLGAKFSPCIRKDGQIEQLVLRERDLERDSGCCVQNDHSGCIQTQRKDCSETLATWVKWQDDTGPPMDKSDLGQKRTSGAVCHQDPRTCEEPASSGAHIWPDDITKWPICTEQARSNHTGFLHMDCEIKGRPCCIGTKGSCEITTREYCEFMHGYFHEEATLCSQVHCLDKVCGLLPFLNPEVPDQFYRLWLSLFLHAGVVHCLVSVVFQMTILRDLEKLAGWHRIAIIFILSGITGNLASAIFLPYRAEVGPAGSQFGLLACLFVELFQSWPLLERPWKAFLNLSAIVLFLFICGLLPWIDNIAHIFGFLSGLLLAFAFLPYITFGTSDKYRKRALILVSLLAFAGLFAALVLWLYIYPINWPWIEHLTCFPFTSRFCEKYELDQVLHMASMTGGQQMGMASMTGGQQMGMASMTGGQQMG
Experiment: FACS, MEF-DKO cells, 3 µg/ml

Row | Binder | loss of binding vs wild type
1 | B1 | ≥ 30%
2 | B2 | ≥ 30%

— patent US20240287172A1 (SCIRHOM, published 2024)
